Assays:
rat RPE = experiment: in vivo retinal re-attachment assay (OCT)
Experimental: All animal experiments were conducted in compliance with the ARVO Statement for the use of Animals in Ophthalmic and Vision Research, and the protocol was approved by the Animal Care and Use Committee of the National Institutes of Health. The procedures have been described in detail in Maminishkis, A., et al., Invest Ophthalmol Vis Sci, 2006, 47, 3612-3624, incorporated by reference in its entirety herein. Briefly, retinal detachments were created in long-Evans rats by injecting 0.5 to 3 μl of modified phosphate-buffered saline (MPBS) Ringer's solution into the sub-retinal space (SRS), which separates the photoreceptor outer segments and the apical membrane of the RPE. In the control portion of each experiment (at 0-70 minutes after creation of the retinal detachment), the rate of change of bleb volume was measured. The control period of “constant” volume was defined by JV≦2 μl hr cm over at least 40 minutes. Any control injections that exceeded this threshold rate were rejected from subsequent analysis.
IFNγ was dissolved in MPBS, mixed with Celluvisc® solution (1:1) and applied as eye-drops (0.4 mL). Optical coherence tomography (OCT) imaging (Institute of Applied Physics, Russian Academy of Science, Nizhniy Novgorod, Russia) was used to measure the time course of the detachment volume change.
A previously tested in vivo rodent model of retinal detachment was used to measure the effect of IFNγ on re-absorption following retinal detachment, as described in Example 11 and in Maminishkis, A., et al., Invest Ophthalmol Vis Sci, 2002, 43, 3555-3566, incorporated herein by reference in its entirety. Initial detachment was created by injecting approximately 1 μl of osmotically-balanced, modified phosphate-buffered saline (MPBS) Ringer's solution into the extracellular space, i.e. the sub-retinal space (SRS). After stabilization of the detachment, IFNγ (40 μl of 100 ng/ml) was added to the anterior surface of the eye via eye drops (Celluvisc®). A series of 3D OCT images were recorded at different time points.

hfRPE monolayer = experiment: fluorescence imaging of intracellular calcium; assay type: cell-based, human; conditions: IFNγ 0.5, 5, 50 ng/ml both sides; n=4
Experimental: Therefore, whether the CFTR pathway was involved in the response to IFNγ was examined using cAMP assays as described in Example 8. Primary cultures of hfRPE cells were incubated in control media, in the presence of IFNγ (0.5, 5, or 50 ng/ml), or in forskolin containing media (10 μM) for different amounts of time (5 minutes, 45 minutes, 12 hours, or 24 hours), and then total intracellular cAMP levels were measured using a cAMP ELISA System (Applied Biosystems, Foster City, Calif.). […] (n=3; P<0.05). […] In a separate set of experiments, fluorescence imaging was used to measure the intracellular concentration of calcium [Ca^2+]I in the presence of IFNγ (0.5, 5, 50 ng/ml) added to both sides of the hfRPE monolayer and no change in total cell [Ca^2+]I was observed (n=4, data not shown).

hfRPE cells = experiment: JC-1 staining of mitochondrial membrane potential; assay type: cell-based, human
Experimental: Mitochondrial membrane potential change (w) was assessed in live hfRPE cells using the lipophilic cationic probe 5,5′,6,6′-tetrachloro-1,1′3,3′-tetraethylbenzimidazol-carbocyanine iodide (JC-1) following the manufacturer's instructions and as described in Voloboueva, L. A., et al., Invest Ophthalmol Vis Sci, 2005, 46, 4302-4310, incorporated herein by reference in its entirety. Confluent monolayers of hfRPE were treated with different concentrations of IFNγ (0.5, 5, 50 ng/ml) for 24, 48, or 72 hours and then incubated with JC-1 solution for 30 minutes at 37° C. Fluorescence was evaluated with a Zeiss Axiovert 25 inverted microscope.

B1: IFNγ: pleiotropic cytokine produced by T- and NK-cells; obtained from Peprotech (protein, UniProt P01579 24-161, looked up)
Interferon gamma: QDPYVKEAENLKKYFNAGHSDVADNGTLFLGILKNWKEESDRKIMQSQIVSFYFKLFKNFKDDQSIQKSVETIKEDMNVKFFNSNKKKRDDFEKLTNYSVTDLNVQRKAIHELIQVMAELSPAAKTGKRKRSQMLFRG
- JV (fluid transport rate out of the retinal detachment) (rat RPE; IFNγ eye drops on anterior surface, t=0 to 40 minutes, FIG. 23B/E): 12 μl·cm^−2·hr^−1
- time in which rate of fluid absorption from subretinal space was significantly increased (rat RPE; IFNγ on anterior surface of the eye): less than 30 minutes
- detachment size (volume) (rat RPE; IFNγ on anterior surface, 40 or 54 minutes): decrease in detachment size
- total cell [Ca^2+]I (hfRPE monolayer): no change
- mitochondrial membrane potential (JC-1) (hfRPE cells; 24 or 48 hour time points): no significant differences
- mitochondrial membrane potential (JC-1 aggregate fluorescence) (hfRPE cells; IFNγ 0.5, 5, 50 ng/ml, 72 hours): dose-dependent decrease

Reference: patent US9486502B2, “Methods of administering interferon gamma to absorb fluid from the subretinal space” (The United States of America, as represented by the …, priority 2008, dated 2016)
